# ± gives the standard deviation.
# Assay: collision cross section of modified peptide (TIMS, N2, iRT-aligned); higher = larger / more extended gas-phase ion
# Outline: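 Synthetic peptide pools (~100 fmol/µL in 2% acetonitrile/0.1% formic acid, iRT standard spiked 1:40) were separated on a 120-min nanoflow C18 gradient at 60 °C. They were analysed on a timsTOF Pro/HT (dda-PASEF, nitrogen, ~2.4 mbar) and identified with MaxQuant. 1/K0 was calibrated with three reference ions and aligned run-wise to the median iRT peptide deviation. Collision cross section came from the Mason-Schamp equation, averaging 1–3 technical replicates of the most abundant feature per charge state.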
# [1] = charge state: 2, modification: Nitro (Y)
# [2] = charge state: 3, modification: Nitro (Y)
# [3] = charge state: 2, modification: Phospho (Y)
# [4] = charge state: 3, modification: Phospho (Y)
# [5] = charge state: 2, modification: Citrullination (R)
# [6] = charge state: 3, modification: Methyl (R)
# [7] = charge state: 3, modification: Citrullination (R)
substance,measurement,setting,value
YIDNQVVSTKGER [_YIDNQVVST(HexNAc (ST))KGER_],collision cross section,"charge state: 2, modification: HexNAc (ST)",428.63 ± 0.14 Å²
same,collision cross section,"charge state: 3, modification: HexNAc (ST)",510.94 ± 0.18 Å²
YIEIYVQKVNPSR [_YIEIYVQK(Dimethyl (K))VNPSR_],collision cross section,"charge state: 2, modification: Dimethyl (K)",441.4 ± 1.2 Å²
same,collision cross section,"charge state: 3, modification: Dimethyl (K)",503.81 ± 1.6 Å²
YIEIYVQKVNPSR [_YIEIYVQK(GlyGly (K))VNPSR_],collision cross section,"charge state: 2, modification: GlyGly (K)",453.07 ± 1.4 Å²
same,collision cross section,"charge state: 3, modification: GlyGly (K)",515.19 ± 0.35 Å²
YIEIYVQKVNPSR [_YIEIYVQK(Methyl (K))VNPSR_],collision cross section,"charge state: 2, modification: Methyl (K)",439.54 ± 1.7 Å²
same,collision cross section,"charge state: 3, modification: Methyl (K)",505.56 ± 3.7 Å²
YIEIYVQKVNPSR [_YIEIYVQK(Succinyl)VNPSR_],collision cross section,"charge state: 2, modification: Succinyl",436.15 Å²
YIEIYVQKVNPSR [_YIEIYVQK(Trimethyl (K))VNPSR_],collision cross section,"charge state: 2, modification: Trimethyl (K)",446.57 Å²
same,collision cross section,"charge state: 3, modification: Trimethyl (K)",499.16 ± 1.6 Å²
YIGTGHADTTK [_Y(Nitro (Y))IGTGHADTTK_],collision cross section,[1],358.04 ± 1.2 Å²
same,collision cross section,[2],452.29 ± 0.83 Å²
YIGTGHADTTK [_Y(Phospho (Y))IGTGHADTTK_],collision cross section,[3],372.65 ± 0.75 Å²
YILIPASQQPK [_Y(Nitro (Y))ILIPASQQPK_],collision cross section,[1],382.12 ± 0.17 Å²
YILIPASQQPK [_Y(Phospho (Y))ILIPASQQPK_],collision cross section,[3],405.41 ± 0.64 Å²
YLHDESGLNR [_Y(Nitro (Y))LHDESGLNR_],collision cross section,[1],366.66 ± 0.46 Å²
same,collision cross section,[2],429.41 ± 1.1 Å²
YLHDESGLNR [_Y(Phospho (Y))LHDESGLNR_],collision cross section,[3],372.11 ± 0.77 Å²
same,collision cross section,[4],460.83 ± 0.1 Å²
YRGDYDR [_YR(Citrullination (R))GDYDR_],collision cross section,[5],333.6 ± 1.8 Å²
YRGDYDR [_YR(Methyl (R))GDYDR_],collision cross section,"charge state: 2, modification: Methyl (R)",328.99 ± 0.25 Å²
same,collision cross section,[6],408.46 ± 0.36 Å²
YSRGAGLGFSTAPNK [_YSR(Citrullination (R))GAGLGFSTAPNK_],collision cross section,[5],397.83 ± 0.22 Å²
YSRGAGLGFSTAPNK [_YSR(Methyl (R))GAGLGFSTAPNK_],collision cross section,[6],478.19 ± 2.5 Å²
YSSNLGNFNYEQRGAFR [_YSSNLGNFNYEQR(Citrullination (R))GAFR_],collision cross section,[7],530.01 Å²
YSSNLGNFNYEQRGAFR [_YSSNLGNFNYEQR(Methyl (R))GAFR_],collision cross section,[6],534.33 ± 1.9 Å²
YSSSSIPEPFGSRGSPR [_YSSSSIPEPFGSR(Citrullination (R))GSPR_],collision cross section,[5],439.28 ± 0.2 Å²
same,collision cross section,[7],523.88 Å²
YSSSSIPEPFGSRGSPR [_YSSSSIPEPFGSR(Methyl (R))GSPR_],collision cross section,[6],522.38 ± 1.8 Å²
YSTSGSSGLTTGK [_Y(Nitro (Y))STSGSSGLTTGK_],collision cross section,[1],371.62 ± 0.55 Å²
YSTSGSSGLTTGK [_Y(Phospho (Y))STSGSSGLTTGK_],collision cross section,[3],375.26 ± 0.063 Å²
YTAILNQIPSHSSSIR [_YTAILNQIP(Hydroxyproline)SHSSSIR_],collision cross section,"charge state: 2, modification: Hydroxyproline",473.92 ± 0.82 Å²
same,collision cross section,"charge state: 3, modification: Hydroxyproline",518.79 ± 6.1 Å²
YTAQVDAEEK [_Y(Nitro (Y))TAQVDAEEK_],collision cross section,[1],358.81 ± 0.55 Å²
YTAQVDAEEK [_Y(Phospho (Y))TAQVDAEEK_],collision cross section,[3],361.18 ± 0.78 Å²
YTCSFCGK [_Y(Nitro (Y))TCSFCGK_],collision cross section,[1],334.4 ± 0.71 Å²
YTCSFCGK [_Y(Phospho (Y))TCSFCGK_],collision cross section,[3],336.46 ± 0.067 Å²
YTQVGPDHNR [_Y(Nitro (Y))TQVGPDHNR_],collision cross section,[1],361.98 ± 1.1 Å²
same,collision cross section,[2],411.69 ± 0.22 Å²
YTQVGPDHNR [_Y(Phospho (Y))TQVGPDHNR_],collision cross section,[3],363.13 ± 0.064 Å²
same,collision cross section,[4],430.78 Å²
YTTNNSSEQR [_Y(Nitro (Y))TTNNSSEQR_],collision cross section,[1],355.01 ± 0.17 Å²
YTTNNSSEQR [_Y(Phospho (Y))TTNNSSEQR_],collision cross section,[3],363.91 ± 0.65 Å²
YVGESEANIR [_Y(Nitro (Y))VGESEANIR_],collision cross section,[1],357.77 ± 0.55 Å²
YVGESEANIR [_Y(Phospho (Y))VGESEANIR_],collision cross section,[3],370.09 ± 0.95 Å²
YVHADAPTNK [_Y(Nitro (Y))VHADAPTNK_],collision cross section,[1],352.73 ± 0.72 Å²
same,collision cross section,[2],417.54 ± 1.2 Å²
YVHADAPTNK [_Y(Phospho (Y))VHADAPTNK_],collision cross section,[3],354.72 ± 0.065 Å²
same,collision cross section,[4],420.4 ± 1 Å²
